Measured values: article PMC7026020

What was measured:
[1] = molecular target: membrane FcγRIIIA (human) (UniProt P08637); test: flow cytometry on cells
[2] = molecular target: membrane FcγRIIIA (human) (UniProt P08637); test: flow cytometry on cells; competition: CD16-transduced NK92 cells (2 x 10^4) incubated with FITC-conjugated anti-CD16 3G8 (1:100) and increasing concentrations of TmAbs or sc-TmAbs, 30 min at 4°C; percent inhibition of 3G8 binding

Sequence of UniProt P08637 (P08637 17-208): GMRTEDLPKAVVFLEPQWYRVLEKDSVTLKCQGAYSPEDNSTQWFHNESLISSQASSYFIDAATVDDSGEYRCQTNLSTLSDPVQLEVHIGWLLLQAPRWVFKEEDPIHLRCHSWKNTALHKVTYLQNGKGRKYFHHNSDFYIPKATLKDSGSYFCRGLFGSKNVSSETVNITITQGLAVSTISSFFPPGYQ

| maximal percent inhibition of 3G8 binding (at 3 mg/mL) [1] | maximal percent inhibition of 3G8 binding (at 3 mg/mL) [2] | Substance |
| --- | --- | --- |
| 80% |  | cetuximab (antibody) |
|  | 80% | infliximab (antibody) |
| 80% |  | ipilimumab (antibody) |
| 80% |  | rituximab (antibody) |
| 80% |  | trastuzumab (antibody) |
